Experimental data reported in article PMC3423377 (2012).

Target: ML/HLA-A2 pMHC, soluble recombinant (human | )
Test: SPR

- koff: 0.016 s⁻¹
B1: fML soluble recombinant Fab (Fab, V domains shown)
VH: EVQLVESGGGLVQPGGSLRLSCAASGFNFSYYSIHWVRQAPGKGLEWVASIYSSSSYTSYADSVKGRFTISADTSKNTAYLQMNSLRAEDTAVYYCARGYYGEWGMDYWGQGTLVTVSS
VL: DIQMTQSPSSLSASVGDRVTITCRASQSVSSAVAWYQQKPGKAPKLLIYSASSLYSGVPSRFSGSRSGTDFTLTISSLQPEDFATYYCQQWNAYPVTFGQGTKVEIK
